From paper PMC4377555, “A novel PKD2L1 C-terminal domain critical for trimerization and channel function” (Scientific Reports, 2015) come the findings set out here.

“And” between values parts separate entries of the source, which are not always exact repeats. Equal entries are not always repeated.

Series [1] concerns the molecule itself. Briefly: non-reducing SDS-PAGE with Western blot; lysates of transfected HEK or HeLa cells, SDS loading buffer without reducing reagents, on ice 5 min, 8% gel; some samples also under reducing condition or with 10 mM NEM in the lysis buffer.
Series [2] deals with the molecule itself. Briefly: native gel or EMSA; BN-PAGE of purified GFP fusion proteins, Coomassie blue staining. In general terms: In EMSA bound probe runs differently from free probe, usually more slowly.
Series [3] concerns the molecule itself. Description: native gel or EMSA; BN-PAGE with Western blot of HeLa cell lysates (NativePAGE Sample Prep Kit, Coomassie G-250, 3-12% BisTris gels), non-denaturing.
Series [4] concerns the molecule itself. Briefly: dynamic light scattering; Malvern Zetasizer Nano ZS, 25°C; 50 mM NaH2PO4, 300 mM NaCl, 250 mM imidazole, pH 8.0; 0.4 mg/ml; oligomeric state from the apparent hydrodynamic diameter.

B1: Flag-tagged PKD2L1 ΔNT/T622X (M1-Y96 and T622-S805 double deletion) (domain or fragment, human, UniProt Q9P0L9-1 97-621, looked up)
chain: IKTTLRELLVYIVFLVDICLLTYGMTSSSAYYYTKVMSELFLHTPSDTGVSFQAISSMADFWDFAQGPLLDSLYWTKWYNNQSLGHGSHSFIYYENMLLGVPRLRQLKVRNDSCVVHEDFREDILSCYDVYSPDKEEQLPFGPFNGTAWTYHSQDELGGFSHWGRLTSYSGGGYYLDLPGSRQGSAEALRALQEGLWLDRGTRVVFIDFSVYNANINLFCVLRLVVEFPATGGAIPSWQIRTVKLIRYVSNWDFFIVGCEVIFCVFIFYYVVEEILELHIHRLRYLSSIWNILDLVVILLSIVAVGFHIFRTLEVNRLMGKLLQQPNTYADFEFLAFWQTQYNNMNAVNLFFAWIKIFKYISFNKTMTQLSSTLARCAKDILGFAVMFFIVFFAYAQLGYLLFGTQVENFSTFIKCIFTQFRIILGDFDYNAIDNANRILGPAYFVTYVFFVFFVLLNMFLAIINDTYSEVKEELAGQKDELQLSDLLKQGYNKTLLRLRLRKERVSDVQKVLQGGEQEIQFEDF
notes: PKD2L1, human, M1-Y96 and T622-S805 deleted; source: HeLa cells, transfected, in lysate; not shown: Flag, N-terminal, kept
Usually stoichiometry N stands for a count of units in the complex or per binding partner. On to B1, for which the “stoichiometry N” value in series [1] was 3.

B2: GFP-C1 (GFP fused to PKD2L1 C1, K575-T622) (domain or fragment, human, UniProt Q9P0L9-1 575-622, looked up)
chain: KDELQLSDLLKQGYNKTLLRLRLRKERVSDVQKVLQGGEQEIQFEDFT
notes: PKD2L1, human, domain C1 K575-T622 (48 amino acids), in pET28a(+) with an upstream GFP gene; source: E. coli BL21 (DE3), purified (Ni-NTA); not shown: GFP, N-terminal, kept
Regarding B2, the “stoichiometry N” value in series [2] came to 3.

B3: Flag-tagged PKD2L1 ΔNT (deletion of M1-Y96) (domain or fragment, human, UniProt Q9P0L9-1 97-805, looked up)
chain: IKTTLRELLVYIVFLVDICLLTYGMTSSSAYYYTKVMSELFLHTPSDTGVSFQAISSMADFWDFAQGPLLDSLYWTKWYNNQSLGHGSHSFIYYENMLLGVPRLRQLKVRNDSCVVHEDFREDILSCYDVYSPDKEEQLPFGPFNGTAWTYHSQDELGGFSHWGRLTSYSGGGYYLDLPGSRQGSAEALRALQEGLWLDRGTRVVFIDFSVYNANINLFCVLRLVVEFPATGGAIPSWQIRTVKLIRYVSNWDFFIVGCEVIFCVFIFYYVVEEILELHIHRLRYLSSIWNILDLVVILLSIVAVGFHIFRTLEVNRLMGKLLQQPNTYADFEFLAFWQTQYNNMNAVNLFFAWIKIFKYISFNKTMTQLSSTLARCAKDILGFAVMFFIVFFAYAQLGYLLFGTQVENFSTFIKCIFTQFRIILGDFDYNAIDNANRILGPAYFVTYVFFVFFVLLNMFLAIINDTYSEVKEELAGQKDELQLSDLLKQGYNKTLLRLRLRKERVSDVQKVLQGGEQEIQFEDFTNTLRELGHAEHEITELTATFTKFDRDGNRILDEKEQEKMRQDLEEERVALNTEIEKLGRSIVSSPQGKSGPEAARAGGWVSGEEFYMLTRRVLQLETVLEGVVSQIDAVGSKLKMLERKGWLAPSPGVKEQAIWKHPQPAPAVTPDPWGVQGGQESEVPYKREEEALEERRLSRGEIPTLQRS
notes: PKD2L1, human, deletion of the N-terminus M1-Y96; also called Flag-ΔNT; Ctrl (ΔNT); source: HeLa or HEK cells, transfected, in lysate; not shown: Flag, N-terminal, kept
As to B3, the “stoichiometry N” value in series [3] came out at 3.

B4: human PKD2L1 over-expressed from pcDNA3.1(+) (natural protein, UniProt Q9P0L9-1 1-805, looked up)
chain: MNAVGSPEGQELQKLGSGAWDNPAYSGPPSPHGTLRVCTISSTGPLQPQPKKPEDEPQETAYRTQVSSCCLHICQGIRGLWGTTLTENTAENRELYIKTTLRELLVYIVFLVDICLLTYGMTSSSAYYYTKVMSELFLHTPSDTGVSFQAISSMADFWDFAQGPLLDSLYWTKWYNNQSLGHGSHSFIYYENMLLGVPRLRQLKVRNDSCVVHEDFREDILSCYDVYSPDKEEQLPFGPFNGTAWTYHSQDELGGFSHWGRLTSYSGGGYYLDLPGSRQGSAEALRALQEGLWLDRGTRVVFIDFSVYNANINLFCVLRLVVEFPATGGAIPSWQIRTVKLIRYVSNWDFFIVGCEVIFCVFIFYYVVEEILELHIHRLRYLSSIWNILDLVVILLSIVAVGFHIFRTLEVNRLMGKLLQQPNTYADFEFLAFWQTQYNNMNAVNLFFAWIKIFKYISFNKTMTQLSSTLARCAKDILGFAVMFFIVFFAYAQLGYLLFGTQVENFSTFIKCIFTQFRIILGDFDYNAIDNANRILGPAYFVTYVFFVFFVLLNMFLAIINDTYSEVKEELAGQKDELQLSDLLKQGYNKTLLRLRLRKERVSDVQKVLQGGEQEIQFEDFTNTLRELGHAEHEITELTATFTKFDRDGNRILDEKEQEKMRQDLEEERVALNTEIEKLGRSIVSSPQGKSGPEAARAGGWVSGEEFYMLTRRVLQLETVLEGVVSQIDAVGSKLKMLERKGWLAPSPGVKEQAIWKHPQPAPAVTPDPWGVQGGQESEVPYKREEEALEERRLSRGEIPTLQRS
notes: PKD2L1, human, full-length cDNA in pcDNA3.1(+), no tag named for this experiment; also called TRPP3; source: HEK293T and HeLa cells, transfected, in lysate
As to B4, the “stoichiometry N” value in series [1] is 2 and 3 and 4.

B5: Flag-tagged human PKD2L1 WT (natural protein, UniProt Q9P0L9-1 1-805, looked up)
chain: B4 chain
notes: PKD2L1, human, full-length cDNA in pcDNA3.1(+), Flag inserted 5' of the coding region; also called Flag-PKD2L1; source: HeLa cells, transfected, in lysate; not shown: Flag, N-terminal, kept
For B5, the “stoichiometry N” value in series [3] is 3 and 2.

B6: purified PKD2L1 C-terminus (CT, E566-S805) (domain or fragment, human, UniProt Q9P0L9-1 566-805, looked up)
chain: EVKEELAGQKDELQLSDLLKQGYNKTLLRLRLRKERVSDVQKVLQGGEQEIQFEDFTNTLRELGHAEHEITELTATFTKFDRDGNRILDEKEQEKMRQDLEEERVALNTEIEKLGRSIVSSPQGKSGPEAARAGGWVSGEEFYMLTRRVLQLETVLEGVVSQIDAVGSKLKMLERKGWLAPSPGVKEQAIWKHPQPAPAVTPDPWGVQGGQESEVPYKREEEALEERRLSRGEIPTLQRS
notes: PKD2L1, human, C-terminus E566-S805; the methods describe only GFP-C1 in pET28a(+) and Ni-NTA; the DLS buffer holds 250 mM imidazole; source: E. coli, purified
For the protein B6, the “stoichiometry N” value in series [4] was determined as 3.
